Experimental data: US20120071419A1 (POSTECH ACADEMY INDUSTRY FOUNDATION, published 2012)
Substitutions are numbered along the chain they refer to.

B1: wild type 1OZJ scaffold (B chain of 1OZJ, crystal structure of Smad3-MH1) (other, human, UniProt P84022 1-144, looked up)
chain: MSSILPFTPPIVKRLLGWKKGEQNGQEEKWCEKAVKSLVKKLKKTGQLDELEKAITTQNVNTKCITIPRSLDGRLQVSHRKGLPHVIYCRLWRWPDLHSHHELRAMELCEFAFNMKKDEVCVNPYHYQRVETPVLPPVLVPRHT
notes: domain: Smad3-MH1; 6; also called WT
B2: clone 8 of the 1OZJ scaffold (designed binder)
chain: B1 chain with K44G, E107P, E110N, N114T, D118P
notes: domain: Smad3-MH1
B3: clone 43 of the 1OZJ scaffold (designed binder)
chain: B1 chain with K44R, E107H, E110N, N114G, D118A
notes: domain: Smad3-MH1
B4: clone 53 of the 1OZJ scaffold (designed binder)
chain: B1 chain with K44A, E107S, E110S, N114S, D118I
notes: domain: Smad3-MH1
B5: clone 7 of the 1OZJ scaffold (designed binder)
chain: B1 chain with K44L, E107A, E110A, N114M, D118C
B6: clone 31 of the 1OZJ scaffold (designed binder)
chain: B1 chain with K44G, E107H, E110P, N114K, D118W
notes: domain: Smad3-MH1
B7: clone 6 of the 1OZJ scaffold (designed binder)
chain: B1 chain with K44S, E107G, E110S, D118L
B8: clone 55 of the 1OZJ scaffold (designed binder)
chain: B1 chain with K44I, E107K, E110R, N114P
notes: domain: Smad3-MH1
B9: clone 54 of the 1OZJ scaffold (designed binder)
chain: B1 chain with K44C, E107I, E110D, N114P, D118R
notes: domain: Smad3-MH1
B10: clone 9 of the 1OZJ scaffold (designed binder)
chain: B1 chain with K44A, E107Q, E110I, N114L, D118P

Key:
[1] = biological target: T1, EGFR (Epidermal Growth Factor Receptor) (human, UniProt P00533 26-444, limits assumed); experiment: phage ELISA, wells coated with 4 ug/ml EGFR, anti-M13-HRP
T1 construct: also called EGF receptor
Procedure: (§1) Individual colonies were randomly selected from the output titration plate of the last round, and inoculated in 1 ml of super broth (3% tryptone, 2% yeast extract, 1% 3-[N-Morpholino] propanesulfonic acid [MOPS], pH 7.0). after overnight incubation at 37° C., the supernatant was used for phage ELISA (enzyme-linked immunosorbant assay). microtitration plate wells were coated with 4 μg/ml EGFR-containing PBS at 4° C. for one night, and blocked with 3% BSA-containing PBS at 37° C. for 1 hour. The plate was cultured with the phage-containing supernatant at 37° C. for 2 hours, and washed with 0.05% Tween-20-containing PBS (PBST) three times. Thereafter, HRP (horseradish peroxidase)-conjugated anti-M13 antibody (Sigma) diluted in a blocking buffer solution (1:2000) was added thereto and cultured at 37° C. for 1 hour. 50 μl of TMB substrate solution (Pierce, Rockford, Ill.) was added to each well, and OD was measured at 650 nm.

[2] = biological target: T1, EGFR (Epidermal Growth Factor Receptor); experiment: phage ELISA, wells coated with 4 ug/ml EGFR, anti-M13-HRP, OD 650 nm
Procedure: as §1

| Binder | OD at 650 nm [1] [OD] | binding result [2] |
| --- | --- | --- |
| B1 | 0.086 | no binding |
| B2 | 1.18 | – |
| B3 | 0.919 | – |
| B4 | 1.02 | – |
| B5 | 1.74 | – |
| B6 | 0.959 | – |
| B7 | 1.83 | – |
| B8 | 0.964 | – |
| B9 | 1.16 | – |
| B10 | 1.75 | – |
